These results are taken from patent US7657380.

pIC50, pKd: −log10 of the molar value.

Assay [1] has as its target GST-fused human V158 FcγRIIIa (extracellular region) (human) (UniProt P08637). Put plainly: AlphaScreen competition vs biotin-WT AC10. On the technique in general: Bead proximity is the source of the signal in Alpha formats.
Assay [2] shares this target. Put plainly: SPR, GST-FcγRIIIa V158 on chip. (In SPR one partner is held on a chip, and binding of the other changes the refractive index at the surface.)

GST-fused human V158 FcγRIIIa (extracellular region) (human), sequence (P08637 17-208 F176V): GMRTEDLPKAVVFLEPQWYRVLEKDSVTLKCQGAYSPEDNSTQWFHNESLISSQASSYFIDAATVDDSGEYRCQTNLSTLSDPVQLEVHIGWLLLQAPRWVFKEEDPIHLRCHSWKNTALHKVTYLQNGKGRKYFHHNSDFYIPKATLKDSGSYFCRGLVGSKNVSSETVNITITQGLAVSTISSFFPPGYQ

For the substance AC10 WT (H0/L0) full length antibody, the pIC50 in assay [1] is 7.06. The pKd in assay [2] is 7.73.

In general, pIC50 refers to the IC50 on a negative log10 scale, so that one unit is a factor of ten. Read a high pIC50 as a low IC50. As a reminder, the pKd is the negative decadic logarithm of the Kd, by convention in mol/L. Lower therefore signals a large Kd.
